Data on seven molecules can be found in patent US20220010003A1 (Boehringer Ingelheim, published 2022).

The target of assay [1] is T1, recombinant mouse periostin (mouse, UniProt Q62009-2 24-811, limits assumed).
T1 construct: also called MoPOSTN
T1 sequence (looked up): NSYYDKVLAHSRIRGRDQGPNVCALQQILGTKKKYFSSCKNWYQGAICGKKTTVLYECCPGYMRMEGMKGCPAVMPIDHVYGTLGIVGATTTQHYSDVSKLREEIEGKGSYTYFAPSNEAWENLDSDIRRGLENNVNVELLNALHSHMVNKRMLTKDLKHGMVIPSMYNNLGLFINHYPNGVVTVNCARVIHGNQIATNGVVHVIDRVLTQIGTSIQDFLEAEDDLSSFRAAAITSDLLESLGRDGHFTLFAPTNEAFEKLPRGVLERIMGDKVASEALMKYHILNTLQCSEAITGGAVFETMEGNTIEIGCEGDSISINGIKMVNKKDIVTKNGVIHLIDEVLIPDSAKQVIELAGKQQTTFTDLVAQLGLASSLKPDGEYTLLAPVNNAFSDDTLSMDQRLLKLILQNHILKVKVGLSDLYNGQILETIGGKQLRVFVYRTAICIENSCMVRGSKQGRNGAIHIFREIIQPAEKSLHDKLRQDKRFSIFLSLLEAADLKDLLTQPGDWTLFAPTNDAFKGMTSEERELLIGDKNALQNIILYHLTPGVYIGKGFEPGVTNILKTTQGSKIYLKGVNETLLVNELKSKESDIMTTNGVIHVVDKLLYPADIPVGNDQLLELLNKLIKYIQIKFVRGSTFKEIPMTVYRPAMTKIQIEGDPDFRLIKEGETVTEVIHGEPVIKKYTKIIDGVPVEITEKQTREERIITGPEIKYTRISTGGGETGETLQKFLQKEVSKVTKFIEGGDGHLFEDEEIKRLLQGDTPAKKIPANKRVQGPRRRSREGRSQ
Put plainly: ELISA, periostin coated, anti-human Fc-HRP; the clone is named in Table 2.

Assay [2] addresses T2, recombinant human periostin (human, UniProt Q15063 22-836).
T2 construct: also called HuPOSTN; POSTN
T2 sequence: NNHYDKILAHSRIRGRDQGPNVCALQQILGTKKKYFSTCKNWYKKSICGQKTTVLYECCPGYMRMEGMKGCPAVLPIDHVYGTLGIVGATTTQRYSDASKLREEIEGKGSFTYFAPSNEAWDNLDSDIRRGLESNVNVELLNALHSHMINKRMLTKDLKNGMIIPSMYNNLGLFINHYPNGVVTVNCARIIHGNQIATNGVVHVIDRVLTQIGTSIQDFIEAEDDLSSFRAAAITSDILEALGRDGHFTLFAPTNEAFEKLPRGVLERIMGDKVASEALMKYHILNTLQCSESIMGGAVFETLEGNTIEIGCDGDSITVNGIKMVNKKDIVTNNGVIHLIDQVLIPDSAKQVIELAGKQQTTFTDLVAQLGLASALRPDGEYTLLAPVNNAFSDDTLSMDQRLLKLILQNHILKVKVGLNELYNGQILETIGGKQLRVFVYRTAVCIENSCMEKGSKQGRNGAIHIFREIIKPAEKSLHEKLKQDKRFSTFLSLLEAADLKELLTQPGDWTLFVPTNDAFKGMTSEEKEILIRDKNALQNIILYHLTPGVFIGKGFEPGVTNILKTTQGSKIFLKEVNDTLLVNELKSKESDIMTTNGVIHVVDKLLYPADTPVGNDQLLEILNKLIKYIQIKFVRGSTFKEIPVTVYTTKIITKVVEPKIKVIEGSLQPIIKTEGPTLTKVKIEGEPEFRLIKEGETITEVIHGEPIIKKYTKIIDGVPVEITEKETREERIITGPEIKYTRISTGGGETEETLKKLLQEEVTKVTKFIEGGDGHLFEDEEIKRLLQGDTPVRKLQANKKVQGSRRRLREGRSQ
Described as above.

Assay [3] addresses T2, recombinant human periostin. The assay is described as follows: cell-based or functional assay.
Assay [4] concerns the target T1, recombinant mouse periostin. The assay is described as follows: binding ELISA, periostin coated. In general terms: An ELISA detects its analyte on a solid surface through an enzyme-linked reagent.
The target of assay [5] is T2, recombinant human periostin. The assay is described as follows: binding ELISA, periostin coated.
For assay [6], the target named is T1, recombinant mouse periostin. Put plainly: cell-based or functional assay.
The target in assay [7] is T2, recombinant human periostin. Put plainly: cell-based or functional assay. This is another data set of the same source.

Residue numbers refer to the chain shown, from its start. Numbers in names are those of the source.

B1: NB0627 (antibody, human IgG1, V domains shown)
VH: QVQLVQSGAEVKKPGASVKVSCKASGYTFTSYGISWVRQAPGQGLEWMGWISAYNGNTNYAQKLQGRVTMTTDTSTSTAYMELRSLRSDDTAVYYCARDMLVVPFDYWGQGTLVTVSS
VL: QSVLTQSSSASGTPGQTVTVSCSGSSSDIGSNRVNWYQQLPGTAPKLLIYSNDQRPSGVPDRFSGSKSGTSASLAISGLQSADEADYYCAAWDDSLSTYVFGSGTKVTVL
Take B1: the EC50 in assay [1] and in assay [2] was under 1 nM throughout. Besides, the “IC50 (nM), cell attachment assay” value in assay [3] was 22.4 nM.

B2: NB1012 (N55S_M100I) (antibody, V domains shown)
VH: B1 VH with N55S, M100I
VL: B1 VL
notes: Double mutant of NB0828 (IgG4PAA parent); the isotype of the variant is not restated
Consider B2, for which the EC50 (usually the concentration that produces a half-maximal response) was 4.42 nM in assay [4] and 2.28 nM in assay [5]. Besides, the “CAA IC50” value in assay [6] worked out at 42.3 nM.

B3: NB1015 (N55D) (antibody, V domains shown)
VH: B1 VH with N55D
VL: B1 VL
notes: Variant of NB0828 (IgG4PAA parent); the isotype of the variant is not restated
For B3, the EC50 in assay [4] was found to be 0.18 nM; in assay [5], 0.12 nM. The “CAA IC50” value amounted to 20.9 nM in assay [6] and 13.6 nM in assay [7].

B4: NB1011 (N55T) (antibody, V domains shown)
VH: B1 VH with N55T
VL: B1 VL
notes: as for B3
For B4, the EC50 in assay [4] and in assay [5] was 0.07 nM in each case. In addition, the “CAA IC50” value in assay [6] stood at 22.3 nM; in assay [7], 15 nM.

B5: NB1010 (N55Q) (antibody, V domains shown)
VH: B1 VH with N55Q
VL: B1 VL
notes: as for B3
B5: the EC50 amounted to 0.1 nM in assay [4] and 0.08 nM in assay [5]. The “CAA IC50” value in assay [6] was found to be 19.6 nM; in assay [7], 7.97 nM.

B6: NB1003 (N55S) (antibody, V domains shown)
VH: B1 VH with N55S
VL: B1 VL
notes: as for B3
B6: the EC50 in assay [4] and in assay [5] was 0.08 nM in each case. For the same molecule, the “CAA IC50” value in assay [6] is 14.9 nM; in assay [7], 10.8 nM.

B7: NB1014 (N55T_M100V) (antibody, V domains shown)
VH: B1 VH with N55T, M100V
VL: B1 VL
notes: as for B2
Regarding B7, the EC50 in assay [4] is 19.3 nM; in assay [5] it was 9.47 nM. In assay [6], the “CAA IC50” value came to 65.1 nM.
